How the values were obtained:
Cc1ncc(CO)c(C=O)c1O = system: T1, Cc1ncc(CO)c(C=O)c1O; test: purified protein; assay type: biochemical, Escherichia coli; conditions: MgATP co-substrate, 20 mM K-HEPES pH 7.5, 0.2 mM MgCl2, 37°C
T1 construct: full length, recombinant from E. coli; wild type untagged (as previously described); K229Q His-tagged (C-terminus; pET28a NdeI/EcoRI)

[1] = system: T2, Nc1ncnc2c1ncn2[C@@H]1O[C@H](COP(=O)(O)OP(=O)(O)OP(=O)(O)O)[C@@H](O)[C@H]1O; test: purified protein; assay type: biochemical, Escherichia coli; conditions: PL co-substrate, 20 mM K-HEPES pH 7.5, 0.2 mM MgCl2, 37°C
T2 construct: full length, recombinant from E. coli; wild type untagged (as previously described); K229Q His-tagged (C-terminus; pET28a NdeI/EcoRI)

Substance	Km (Cc1ncc(CO)c(C=O)c1O) [µM]	kcat (Cc1ncc(CO)c(C=O)c1O) [s⁻¹]	Km [1] [µM]	kcat [1] [s⁻¹]	Km (Cc1ncc(CO)c(C=O)c1O; His-tagged) [µM]	kcat (Cc1ncc(CO)c(C=O)c1O; His-tagged) [s⁻¹]	Km ([1]; His-tagged) [µM]	kcat ([1]; His-tagged) [s⁻¹]
ePL kinase (E. coli pyridoxal kinase 1, PL kinase1) (Escherichia coli K-12)	60	4	460	4	–	–	–	–
ePL kinase (E. coli pyridoxal kinase 1, PL kinase1) (Escherichia coli K-12; K229Q)	–	–	–	–	384	0.433	122	0.433
